In patent US20240285816A1, “FORMULATIONS FOR RADIOTHERAPY AND DIAGNOSTIC IMAGING” (priority 2016, published 2024):

Key:
[1] = Single dose preclinical toxicology study, intravenous injection; type: in vivo, Sprague Dawley rats
Protocol: A single dose preclinical toxicology study in Sprague Dawley rats was conducted to evaluate the potential toxicity of SARTATE when administered via intravenous injection. Testing was performed on solutions of SARTATE-copper-complex (SCC) and unlabeled SARTATE ligand (SL) at a 1:1 ratio. The study was conducted according to the requirements of OECD GLP Principles.
The test item was administered once to six groups of 10 rats (5/sex) at three doses of 50, 250 and 1000 μg/kg in the vehicle at a volume of 3 mL/kg. Two vehicle control groups of 10 rats (5/sex) were administered the vehicle only (10% ethanol in 0.9% sodium chloride and 0.056% gentisic acid) at the same volumetric dose.
Four groups of rats (one vehicle and three test item treated 50, 250 and 1000 μg/kg) from the main study were sacrificed on Day 2.
The following parameters were evaluated: mortality, daily clinical observations, weekly body weights, weekly food consumption, haematology, biochemistry, urinalysis, organ weights and gross necropsy on day of sacrifice. Extensive histopathology was performed on all animals.

[2] = HPLC analysis of radiochemical purity and stability of the formulation (gamma scintillation detector); type: physicochemical; details: post-manufacture
Excerpt: The formulations of a radioisotope-ligand complex referred to herein are stable in solution and under physiological conditions for a time. The stability of the formulation relates to the stability of the complex, where the radioisotope may undergo dissociation or the complex may undergo radiolysis. The stability of the complex can be measured by considering the radiochemical purity of the formulation. Radiochemical purity is defined as the amount of the radioisotope complexed by the sarcophagine ligand expressed as percentage of the total amount of the radioisotope present in the formulation. The radioisotope may be present in the formulation as a complex with the sarcophagine ligand, as a free radioisotope or as part of a radiolysis product.
The solution is then filtered through a solid phase extraction cartridge. […] HPLC analysis of the solution obtained can be seen in FIG. 1, showing over 97% radiochemical purity. Further HPLC analysis of the same product solution obtained over multiple time points can be seen in FIG. 2, showing that the radiochemical purity remains >90% for more than 11 hours.
The solution is then filtered through a solid phase extraction cartridge. […] HPLC analysis of the solution obtained can be seen in FIG. 3, showing over 98% radiochemical purity. […]

[3] = type: in vitro ADME; details: human, serum
[4] = in vivo; design: species or system Balb/c nude mice; details: Balb/c nude, mouse
[5] = test item SCC and SL 1:1, 2-day and 15-day experimental periods

## CC(O)[C@H](NC(=O)[C@@H]1CSSC[C@H](NC(=O)[C@@H](Cc2ccccc2)NC(=O)CCCC(=O)NC23CNCCNCC(C)(CNCCNC2)CNCCNC3)C(=O)N[C@@H](Cc2ccc(O)cc2)C(=O)N[C@H](Cc2c[nH]c3ccccc23)C(=O)N[C@@H](CCCCN)C(=O)N[C@@H](C(C)O)C(=O)N1)C(=O)O (stereo partly drawn) [SARTATE, MeCOSar-D-Phe-Cys-Tyr-D-Trp-Lys-Thr-Cys-Thr-OH]
[1]; both sexes, Sprague Dawley, in vivo, intravenous, from rat NOAEL of 1 mg/kg, read-out: Human Equivalent Dose (HED) of the NOAEL
  Human equivalent dose of the NOAEL at 14 days: 0.16 mg/kg
[1]; both sexes, in vivo, iv, single i.v. dose, Sprague Dawley rat, read-out: No Observed Adverse Effect level (NOAEL)
  NOAEL at 14 days: 1 mg/kg
[1]; intravenously at 50, 250 and 1000 μg/kg
  toxic effects: no toxic effects
[1]; maximum total dose 0.02 mg per patient
  safety margin of NOAEL over the maximum human dose: 50 times
[1]; patient with a weight of 70 kg
  Human Equivalent Dose as total dose: 11.2 mg
[1]; test item SCC and SL 1:1
  haematology, blood biochemistry and urine analysis: no test item-related effects
  organ weight and histopathology: no evidence of any test item-related effect
[1]; [5]
  body weight gains versus vehicle control: comparable body weights gains
  clinical abnormalities: no clinical abnormalities related to treatment
  feed intake versus control: similar
[1]; test item SCC and SL 1:1, all animals
  macroscopic abnormalities at necropsy: No macroscopic abnormalities
[1]; test item SCC and SL at 1:1 ratio, 50, 250 and 1000 μg/kg i.v. single dose, treatment and recovery periods
  mortality: No mortalities related to treatment

## CC(O)[C@H](NC(=O)[C@@H]1CSSC[C@H](NC(=O)[C@@H](Cc2ccccc2)NC(=O)CCCC(=O)NC23CNCCNCC(C)(CNCCNC2)CNCCNC3)C(=O)N[C@@H](Cc2ccc(O)cc2)C(=O)N[C@H](Cc2c[nH]c3ccccc23)C(=O)N[C@@H](CCCCN)C(=O)N[C@@H](C(C)O)C(=O)N1)C(=O)O (stereo partly shown) [^64Cu-SARTATE, metal not drawn]
[2]
  time for which stability of the formulation is observed: up to 45 hours
[3]
  time for which the complex remains intact (metabolic stability): up to 45 hours
[4]; blood
  tissue uptake at 2 h: 0.4 ± 0.2 %ID/g
  tissue uptake at 24 h: 0.1 ± 0.02 %ID/g
[4]; kidney uptake
  tissue uptake at 24 h: 10.1 ± 3.5 %ID/g
[4]; muscle accumulation
  tissue uptake at 24 h: 0.1 ± 0.01 %ID/g
[4]; tumour uptake
  tissue uptake at 24 h: 31.4 ± 14 %ID/g
[4]; uptake by the liver
  tissue uptake at 2 h: 3.1 ± 1.3 %ID/g
[4]; uptake in lungs
  tissue uptake at 24 h: 0.6 ± 0.3 %ID/g
[4]; uptake in spleen
  tissue uptake at 24 h: 0.8 ± 0.2 %ID/g
